Reference: article PMC8008175 (The Journal of Biological Chemistry, 2021)
Values belong to the molecule of their own block, whether it stands above or below them.

How the values were obtained:
[1] = target: Ubp6 UBL UBL (Saccharomyces cerevisiae) (UniProt P43593); details: cited from earlier work
[2] = target: T1, Rpn1^356-905 (Saccharomyces cerevisiae, UniProt P38764 356-905); test: NMR titration; competition: equimolar ^15N-UBL and Rpn1^356-905 with unlabeled competitor added stepwise (molar ratios 1 and 4); 50 mM Tris-Cl, 200 mM KCl, 5% glycerol, 5 mM β-mercaptoethanol, pH 7.4; 21-25 °C; details: both partners purified
T1 construct: also called PC repeat region construct; source: E. coli, purified
T1 sequence (looked up): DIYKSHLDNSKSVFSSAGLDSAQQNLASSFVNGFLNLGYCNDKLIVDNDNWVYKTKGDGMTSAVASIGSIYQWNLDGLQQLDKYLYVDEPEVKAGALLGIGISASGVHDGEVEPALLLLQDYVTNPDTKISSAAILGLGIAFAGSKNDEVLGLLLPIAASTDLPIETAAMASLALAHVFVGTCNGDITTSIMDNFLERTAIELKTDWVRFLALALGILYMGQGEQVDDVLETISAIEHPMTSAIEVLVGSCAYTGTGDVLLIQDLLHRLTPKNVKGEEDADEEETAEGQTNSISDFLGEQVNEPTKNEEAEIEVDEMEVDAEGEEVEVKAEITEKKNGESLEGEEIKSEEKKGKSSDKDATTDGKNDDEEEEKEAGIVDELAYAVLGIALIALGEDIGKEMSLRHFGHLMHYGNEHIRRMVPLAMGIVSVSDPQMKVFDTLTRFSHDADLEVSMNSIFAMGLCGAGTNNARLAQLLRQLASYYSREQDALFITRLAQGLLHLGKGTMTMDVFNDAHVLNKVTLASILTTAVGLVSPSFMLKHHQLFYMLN

[3] = target: T2, Rpn1^391-642 (Saccharomyces cerevisiae, UniProt P38764 391-642); test: NMR titration; ^1H-^15N spectra, CSPs and ^15N R2 of 150 μM ^15N-UBL or ^15N-^dK48-Ub2 with unlabeled Rpn1^391-642; 50 mM HEPES, 50 mM KCl, 1 mM TCEP, pH 7.6; 21-25 °C; details: both partners purified
T2 construct: Used unlabeled, and ^15N-enriched for the titration with Ubp6-UBL; source: E. coli, purified
T2 sequence (looked up): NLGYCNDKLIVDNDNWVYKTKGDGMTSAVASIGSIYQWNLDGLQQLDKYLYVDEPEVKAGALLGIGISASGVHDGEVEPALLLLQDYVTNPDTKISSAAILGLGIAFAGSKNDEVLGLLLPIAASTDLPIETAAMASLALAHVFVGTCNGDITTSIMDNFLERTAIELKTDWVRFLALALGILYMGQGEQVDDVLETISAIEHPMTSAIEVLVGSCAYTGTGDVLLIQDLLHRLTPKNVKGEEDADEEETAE

[4] = target: T3, full-length Rpn1 (Saccharomyces cerevisiae, UniProt P38764 1-993); test: NMR titration; ^1H-^15N spectra of the ^15N-enriched protein or UBL domain with unlabeled Rpn1^FL (equimolar; excess for Ddi1); signal attenuation; 20 mM sodium phosphate, 150 mM NaCl, 1 mM TCEP, pH 6.8; 21-25 °C; details: both partners purified
T3 construct: Rpn1, proteasomal subunit, Saccharomyces cerevisiae, UniProt P38764, full length; Unlabeled in the NMR experiments; also called Rpn1^FL; source: E. coli, purified
T3 sequence (looked up): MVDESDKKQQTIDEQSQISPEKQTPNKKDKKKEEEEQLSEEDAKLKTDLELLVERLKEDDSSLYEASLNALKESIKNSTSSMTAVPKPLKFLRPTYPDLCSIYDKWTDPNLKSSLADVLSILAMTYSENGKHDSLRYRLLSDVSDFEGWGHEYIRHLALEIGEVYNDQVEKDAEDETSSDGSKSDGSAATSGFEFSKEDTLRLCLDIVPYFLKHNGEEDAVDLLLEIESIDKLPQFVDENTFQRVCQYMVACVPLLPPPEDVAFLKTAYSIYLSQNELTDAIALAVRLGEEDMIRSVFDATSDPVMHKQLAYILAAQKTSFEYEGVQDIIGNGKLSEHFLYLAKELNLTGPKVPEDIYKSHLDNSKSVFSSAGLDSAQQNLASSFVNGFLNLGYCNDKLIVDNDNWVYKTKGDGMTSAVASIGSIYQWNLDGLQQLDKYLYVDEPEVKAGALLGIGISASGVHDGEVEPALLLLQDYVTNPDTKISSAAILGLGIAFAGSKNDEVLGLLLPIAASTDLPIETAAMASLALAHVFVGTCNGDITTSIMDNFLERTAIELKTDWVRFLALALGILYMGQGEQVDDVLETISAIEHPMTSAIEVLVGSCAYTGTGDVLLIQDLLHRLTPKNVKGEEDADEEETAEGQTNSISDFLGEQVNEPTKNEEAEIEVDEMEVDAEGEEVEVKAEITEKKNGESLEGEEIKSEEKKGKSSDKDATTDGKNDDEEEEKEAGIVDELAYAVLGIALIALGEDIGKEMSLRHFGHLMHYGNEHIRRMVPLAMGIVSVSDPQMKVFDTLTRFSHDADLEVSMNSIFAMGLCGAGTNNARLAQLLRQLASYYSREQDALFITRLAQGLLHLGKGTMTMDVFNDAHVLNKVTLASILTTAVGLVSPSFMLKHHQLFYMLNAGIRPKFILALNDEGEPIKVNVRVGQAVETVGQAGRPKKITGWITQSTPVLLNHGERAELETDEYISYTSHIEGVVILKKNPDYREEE

[5] = target: T4, Rpn1^391-642(AKAA) (Saccharomyces cerevisiae, UniProt P38764 391-642, L430A | D431K | Q434A | Q435A); test: NMR titration; unlabeled Ubp6-UBL titrated into ^15N-Rpn1^391-642 or ^15N-Rpn1^391-642(AKAA); CSPs fitted to a single-site binding model, Kd as a global parameter; 50 mM HEPES, 50 mM KCl, 1 mM TCEP, pH 7.6; 21-25 °C; details: both partners purified
T4 construct: ^15N-enriched in the titration; source: E. coli, purified
T4 sequence (looked up): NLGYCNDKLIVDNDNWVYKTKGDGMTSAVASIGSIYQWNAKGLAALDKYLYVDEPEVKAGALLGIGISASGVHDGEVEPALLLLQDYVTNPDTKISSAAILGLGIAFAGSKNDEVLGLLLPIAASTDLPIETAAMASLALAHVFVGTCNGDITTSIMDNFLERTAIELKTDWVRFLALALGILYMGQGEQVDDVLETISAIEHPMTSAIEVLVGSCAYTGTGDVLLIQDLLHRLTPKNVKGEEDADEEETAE

[6] = target: T2, Rpn1^391-642; test: as above; details: both partners purified
[7] = target: T3, full-length Rpn1; test: NMR titration; competition: 150 μM ^15N-UBL with 1× Rpn10-UIM, then 0.3× Rpn1^FL (48 μM), then 2× or 3× Rpn10-UIM; details: both partners purified
[8] = target: T5, Rpn10-UIM (Saccharomyces cerevisiae, UniProt P38886 204-268, Q261Y); test: NMR titration; ^1H-^15N spectra of 150 μM ^15N-UBL with 1× Rpn10-UIM; signal shifts; details: both partners purified
T5 construct: Rpn10, Saccharomyces cerevisiae, UniProt P38886, residues 204-268 with a Q261Y mutation for quantification purposes; also called UIM domain of Rpn10; source: E. coli, purified
T5 sequence (looked up): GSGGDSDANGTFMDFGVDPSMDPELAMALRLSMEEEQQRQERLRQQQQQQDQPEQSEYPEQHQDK

[9] = target: T1, Rpn1^356-905; test: NMR titration; ^1H-^15N spectra of ^15N-UBL with unlabeled Rpn1^356-905; 50 mM Tris-Cl, 200 mM KCl, 5% glycerol, 5 mM β-mercaptoethanol, pH 7.4; 21-25 °C; details: both partners purified

Molecule: Rpn1 391-642 (from UniProt P38764)
Kd [1]: 40 µM

binding result [2]: binds
binding result [3]: binds
binding result [4]: binds
B1: Rad23-UBL (residues 2-77) (domain or fragment, Saccharomyces cerevisiae, UniProt P32628 2-77, looked up)
chain: VSLTFKNFKKEKVPLDLEPSNTILETKTKLAQSISCEESQIKLIYSGKVLQDSKTVSECGLKDGDQVVFMVSQKKS
notes: Rad23, Saccharomyces cerevisiae, UniProt P32628, UBL domain, residues 2-77; also called UBL domain of Rad23; source: E. coli, purified

binding result [4]: binds
B2: full-length Dsk2 (natural protein, Saccharomyces cerevisiae, UniProt P48510 1-373, looked up)
chain: MSLNIHIKSGQDKWEVNVAPESTVLQFKEAINKANGIPVANQRLIYSGKILKDDQTVESYHIQDGHSVHLVKSQPKPQTASAAGANNATATGAAAGTGATPNMSSGQSAGFNPLADLTSARYAGYLNMPSADMFGPDGGALNNDSNNQDELLRMMENPIFQSQMNEMLSNPQMLDFMIQSNPQLQAMGPQARQMLQSPMFRQMLTNPDMIRQSMQFARMMDPNAGMGSAGGAASAFPAPGGDAPEEGSNTNTTSSSNTGNNAGTNAGTNAGANTAANPFASLLNPALNPFANAGNAASTGMPAFDPALLASMFQPPVQASQAEDTRPPEERYEHQLRQLNDMGFFDFDRNVAALRRSGGSVQGALDSLLNGDV
notes: Dsk2, UBL-UBA shuttle protein, Saccharomyces cerevisiae, UniProt P48510, full length; ^15N-enriched; source: E. coli, purified

binding result [4]: binds
B3: full-length Rad23 (natural protein, Saccharomyces cerevisiae, UniProt P32628 1-398, looked up)
chain: MVSLTFKNFKKEKVPLDLEPSNTILETKTKLAQSISCEESQIKLIYSGKVLQDSKTVSECGLKDGDQVVFMVSQKKSTKTKVTEPPIAPESATTPGRENSTEASPSTDASAAPAATAPEGSQPQEEQTATTERTESASTPGFVVGTERNETIERIMEMGYQREEVERALRAAFNNPDRAVEYLLMGIPENLRQPEPQQQTAAAAEQPSTAATTAEQPAEDDLFAQAAQGGNASSGALGTTGGATDAAQGGPPGSIGLTVEDLLSLRQVVSGNPEALAPLLENISARYPQLREHIMANPEVFVSMLLEAVGDNMQDVMEGADDMVEGEDIEVTGEAAAAGLGQGEGEGSFQVDYTPEDDQAISRLCELGFERDLVIQVYFACDKNEEAAANILFSDHAD
notes: Rad23, UBL-UBA shuttle protein, Saccharomyces cerevisiae, UniProt P32628, full length; ^15N-enriched; source: E. coli, purified

binding result [4]: binds
B4: full-length Ubp6 (enzyme, Saccharomyces cerevisiae, UniProt P43593 1-499, looked up)
chain: MSGETFEFNIRHSGKVYPITLSTDATSADLKSKAEELTQVPSARQKYMVKGGLSGEESIKIYPLIKPGSTVMLLGTPDANLISKPAKKNNFIEDLAPEQQVQQFAQLPVGFKNMGNTCYLNATLQALYRVNDLRDMILNYNPSQGVSNSGAQDEEIHKQIVIEMKRCFENLQNKSFKSVLPIVLLNTLRKCYPQFAERDSQGGFYKQQDAEELFTQLFHSMSIVFGDKFSEDFRIQFKTTIKDTANDNDITVKENESDSKLQCHISGTTNFMRNGLLEGLNEKIEKRSDLTGANSIYSVEKKISRLPKFLTVQYVRFFWKRSTNKKSKILRKVVFPFQLDVADMLTPEYAAEKVKVRDELRKVEKEKNEKEREIKRRKFDPSSSENVMTPREQYETQVALNESEKDQWLEEYKKHFPPNLEKGENPSCVYNLIGVITHQGANSESGHYQAFIRDELDENKWYKFNDDKVSVVEKEKIESLAGGGESDSALILMYKGFGL
notes: Ubp6, deubiquitinase with a UBL domain, Saccharomyces cerevisiae, UniProt P43593, full length; source: E. coli, purified

Kd [5]: 36 ± 21 µM
Kd [6]: 43 ± 22 µM
B5: Ubp6-UBL (domain or fragment, Saccharomyces cerevisiae, UniProt P43593 2-81, looked up)
chain: SGETFEFNIRHSGKVYPITLSTDATSADLKSKAEELTQVPSARQKYMVKGGLSGEESIKIYPLIKPGSTVMLLGTPDANL
notes: Ubp6, Saccharomyces cerevisiae, UniProt P43593, UBL domain, residues 2-81; Used ^15N-enriched or unlabeled; also called UBL domain of Ubp6; source: E. coli, purified

binding result [7]: binds
B6: Rad23-UBL (residues 1-73) (domain or fragment, Saccharomyces cerevisiae, UniProt P32628 1-73, looked up)
chain: MVSLTFKNFKKEKVPLDLEPSNTILETKTKLAQSISCEESQIKLIYSGKVLQDSKTVSECGLKDGDQVVFMVS
notes: ^15N-enriched; source: E. coli, purified

binding result [8]: binds
binding result [3]: binds
binding result [7]: binds
binding result [9]: binds
B7: Dsk2-UBL (domain or fragment, Saccharomyces cerevisiae)
chain: SLNIHIKSGQDKWEVNVAPESTVLQFKEAINKANGIPVANQRLIYSGKILKDDQTVESYHIQDGHSVHLVKSQPKPLDLQPSLIS
notes: Dsk2, Saccharomyces cerevisiae, UniProt P48510, UBL domain, residues 2-77; also called UBL domain of Dsk2; source: E. coli, purified
